# Values quoted from earlier work in US10744082B2, “Compositions for treatment of xerostomia and for tooth treatment” (3 IN 1 DENTAL PLLC, priority 2013, dated 2020).
# System: lean meat
# Details: usual grade of papain
molecule,measurement,value
"Papain (protein, UniProt P00784 134-345, looked up, Protease enzyme; white or grayish-white, slightly hygroscopic powder, designated USP) Papain: IPEYVDWRQKGAVTPVKNQGSCGSCWAFSAVVTIEGIIKIRTGNLNEYSEQELLDCDRRSYGCNGGYPWSALQLVAQYGIHYRNTYPYEGVQRYCRSREKGPYAAKTDGVRQVQPYNEGALLYSIANQPVSVVLEAAGKDFQLYRGGIFVGPCGNKVDHAVAAVGYGPNYILIKNSWGTGWGENGYIRIKRGTGNSYGVCGLYTSSFYPVKN",potency: weight of lean meat digested,~35 times its weight
